Test results published in patent US11278600B2, “Human alpha-galactosidase variants” (Codexis, Inc., priority 2014, dated 2022).
Changes are numbered by the printed parent chain.

B1: 591 (protein)
chain: LDNGLARTPTMGWLHWERFMCNLDCQEEPDSCISEKLFMEMAERMVSEGWKDAGYEYLCIDDCWMAPQRDSEGRLQADPQRFPHGIRQLANHVHSKGLKLGIYADVGNKTCAGFPGSFGYYDIDAQTFADWGVDLLKFDGCYCDSLENLADGYKHMSLALNRTGRSIVYSCEWPLYMWPFQKPNYTEIKQYCNHWRNFADIDDSWASIKSILDWTSRNQERIVDVAGPGGWNDPDMLVIGNFGLSWDQQVTQMALWAIMAAPLFMSNDLRHISPQAKALLQDKDVIAINQDPLGKQGYQLRKGDNFEVWERPLSGDAWAVAIINRQEIGGPRSYTIPVASLGKGVACNPACFITQLLPVKRQLGFYNWTSRLKSHINPTGTVLLQLENTMQMSLKDLL
modifications: Synthetic Polypeptide sequence of Variant No. 591 of mature Human GLA
B2: 600 (protein)
chain: B1 chain with Y120S, K189R, L341F
modifications: Synthetic Polypeptide sequence of Variant No. 600 of mature Human GLA
B3: 592 (protein)
chain: B1 chain with K189V
modifications: Synthetic Polypeptide sequence of Variant No. 592 of mature Human GLA
B4: 602 (protein)
chain: B1 chain with M39E, K189R
modifications: Synthetic Polypeptide sequence of Variant No. 602 of mature Human GLA
B5: 601 (protein)
chain: B1 chain with M39C, K189R
modifications: Synthetic Polypeptide sequence of Variant No. 601 of mature Human GLA
B6: 521 (protein)
chain: B1 chain with D52N, K189R
modifications: Synthetic Polypeptide sequence of Variant No. 521 of mature Human GLA
B7: 522 (protein)
chain: B1 chain with E56K, K189R
modifications: Synthetic Polypeptide sequence of Variant No. 522 of mature Human GLA
B8: 604 (protein)
chain: B1 chain with M39V, K189R
modifications: Synthetic Polypeptide sequence of Variant No. 604 of mature Human GLA
B9: 603 (protein)
chain: B1 chain with M39R, K189R
modifications: Synthetic Polypeptide sequence of Variant No. 603 of mature Human GLA
B10: 593 (protein)
chain: B1 chain with S95A, K189R
modifications: Synthetic Polypeptide sequence of Variant No. 593 of mature Human GLA
B11: 594 (protein)
chain: B1 chain with S95E, K189R
modifications: Synthetic Polypeptide sequence of Variant No. 594 of mature Human GLA
B12: 596 (protein)
chain: B1 chain with T186G, K189R
modifications: Synthetic Polypeptide sequence of Variant No. 596 of mature Human GLA
B13: 599 (protein)
chain: B1 chain with Y120S, K189R
modifications: Synthetic Polypeptide sequence of Variant No. 599 of mature Human GLA
B14: 595 (protein)
chain: B1 chain with T186A, K189R
modifications: Synthetic Polypeptide sequence of Variant No. 595 of mature Human GLA
B15: 597 (protein)
chain: B1 chain with T186V, K189R
modifications: Synthetic Polypeptide sequence of Variant No. 597 of mature Human GLA
B16: 598 (protein)
chain: B1 chain with Y120H, K189R
modifications: Synthetic Polypeptide sequence of Variant No. 598 of mature Human GLA

experiment: HTP-analysis of yeast culture supernatants, no challenge (MUGal hydrolysis); assay type: biochemical; conditions: activity of the variant/activity of Rd3BB (SEQ ID NO: 13)
How it was run: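 GLA variants expressed in yeast INVSc1, secreted into SD-Ura broth over 66-84 h at 30° C; clarified supernatants tested without challenge. Supernatant mixed with McIlvaine buffer pH 4.8 and 2 mM MUGal (citrate/KCl, pH 4.6), 37° C for 30-180 min, carbonate-quenched, fluorescence Ex 355/Em 448 nm.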

| Molecule | Relative Activity of GLA Variants After No Challenge (NC) |
| --- | --- |
| B1 | + (+ = 1.5 to 5 relative activity over Rd3BB (SEQ ID NO: 13)) |
| B2 | + (+ = 1.5 to 5 relative activity over Rd3BB (SEQ ID NO: 13)) |
| B3 | + (+ = 1.5 to 5 relative activity over Rd3BB (SEQ ID NO: 13)) |
| B4 | + (+ = 1.5 to 5 relative activity over Rd3BB (SEQ ID NO: 13)) |
| B5 | − (− = <1.5 relative activity to Rd3BB (SEQ ID NO: 13)) |
| B6 | + (+ = 1.5 to 5 relative activity over Rd3BB (SEQ ID NO: 13)) |
| B7 | + (+ = 1.5 to 5 relative activity over Rd3BB (SEQ ID NO: 13)) |
| B8 | + (+ = 1.5 to 5 relative activity over Rd3BB (SEQ ID NO: 13)) |
| B9 | + (+ = 1.5 to 5 relative activity over Rd3BB (SEQ ID NO: 13)) |
| B10 | + (+ = 1.5 to 5 relative activity over Rd3BB (SEQ ID NO: 13)) |
| B11 | + (+ = 1.5 to 5 relative activity over Rd3BB (SEQ ID NO: 13)) |
| B12 | + (+ = 1.5 to 5 relative activity over Rd3BB (SEQ ID NO: 13)) |
| B13 | + (+ = 1.5 to 5 relative activity over Rd3BB (SEQ ID NO: 13)) |
| B14 | + (+ = 1.5 to 5 relative activity over Rd3BB (SEQ ID NO: 13)) |
| B15 | + (+ = 1.5 to 5 relative activity over Rd3BB (SEQ ID NO: 13)) |
| B16 | + (+ = 1.5 to 5 relative activity over Rd3BB (SEQ ID NO: 13)) |

experiment: HTP-analysis of supernatants pretreated with acid (MUGal hydrolysis); assay type: biochemical; conditions: activity of the variant/activity of Rd3BB (SEQ ID NO: 13); challenge at pH 3.7
How it was run: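 Fluorescence of MUGal hydrolysis (Ex. 355 nm, Em. 448 nm) is read after sodium carbonate quench. The enzyme source is INVSc1 yeast culture supernatant, first exposed to pH 3.3-4.3 McIlvaine buffer at 37° C. for 1-3 h, then reacted at pH 4.8 for 30-180 minutes.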

| Molecule | Relative Activity of GLA Variants After Challenge at pH 3.7 |
| --- | --- |
| B1 | + (+ = 1.5 to 5 relative activity over Rd3BB (SEQ ID NO: 13)) |
| B2 | +++ (+++ = >10 relative activity over Rd3BB (SEQ ID NO: 13)) |
| B3 | + (+ = 1.5 to 5 relative activity over Rd3BB (SEQ ID NO: 13)) |
| B4 | + (+ = 1.5 to 5 relative activity over Rd3BB (SEQ ID NO: 13)) |
| B5 | + (+ = 1.5 to 5 relative activity over Rd3BB (SEQ ID NO: 13)) |
| B6 | + (+ = 1.5 to 5 relative activity over Rd3BB (SEQ ID NO: 13)) |
| B7 | +++ (+++ = >10 relative activity over Rd3BB (SEQ ID NO: 13)) |
| B8 | + (+ = 1.5 to 5 relative activity over Rd3BB (SEQ ID NO: 13)) |
| B9 | + (+ = 1.5 to 5 relative activity over Rd3BB (SEQ ID NO: 13)) |
| B10 | + (+ = 1.5 to 5 relative activity over Rd3BB (SEQ ID NO: 13)) |
| B11 | + (+ = 1.5 to 5 relative activity over Rd3BB (SEQ ID NO: 13)) |
| B12 | ++ (++ = >5 to 10 relative activity over Rd3BB (SEQ ID NO: 13)) |
| B13 | + (+ = 1.5 to 5 relative activity over Rd3BB (SEQ ID NO: 13)) |
| B14 | + (+ = 1.5 to 5 relative activity over Rd3BB (SEQ ID NO: 13)) |
| B15 | − (− = <1.5 relative activity to Rd3BB (SEQ ID NO: 13)) |
| B16 | + (+ = 1.5 to 5 relative activity over Rd3BB (SEQ ID NO: 13)) |

experiment: HTP-analysis of supernatants pretreated with base (MUGal hydrolysis); assay type: biochemical; conditions: activity of the variant/activity of Rd3BB (SEQ ID NO: 13); challenge at pH 9.7
How it was run: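 GLA variants secreted from yeast INVSc1; culture supernatants pre-incubated with McIlvaine buffer pH 7.0–8.2 or 200 mM bicarbonate pH 9.1–9.7 at 37° C. for 1–18 h. Residual activity: MUGal (4 mM stock) hydrolysis at pH 4.3–4.8, 37° C., 30–180 min, carbonate quench; fluorescence Ex 355/Em 448 nm.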

| Molecule | Relative Activity of GLA Variants After Challenge at pH 9.7 |
| --- | --- |
| B1 | ++ (++ = >5 to 10 relative activity over Rd3BB (SEQ ID NO: 13)) |
| B2 | + (+ = 1.5 to 5 relative activity over Rd3BB (SEQ ID NO: 13)) |
| B3 | ++ (++ = >5 to 10 relative activity over Rd3BB (SEQ ID NO: 13)) |
| B4 | ++ (++ = >5 to 10 relative activity over Rd3BB (SEQ ID NO: 13)) |
| B5 | + (+ = 1.5 to 5 relative activity over Rd3BB (SEQ ID NO: 13)) |
| B6 | ++ (++ = >5 to 10 relative activity over Rd3BB (SEQ ID NO: 13)) |
| B7 | ++ (++ = >5 to 10 relative activity over Rd3BB (SEQ ID NO: 13)) |
| B8 | ++ (++ = >5 to 10 relative activity over Rd3BB (SEQ ID NO: 13)) |
| B9 | + (+ = 1.5 to 5 relative activity over Rd3BB (SEQ ID NO: 13)) |
| B10 | ++ (++ = >5 to 10 relative activity over Rd3BB (SEQ ID NO: 13)) |
| B11 | ++ (++ = >5 to 10 relative activity over Rd3BB (SEQ ID NO: 13)) |
| B12 | ++ (++ = >5 to 10 relative activity over Rd3BB (SEQ ID NO: 13)) |
| B13 | ++ (++ = >5 to 10 relative activity over Rd3BB (SEQ ID NO: 13)) |
| B14 | + (+ = 1.5 to 5 relative activity over Rd3BB (SEQ ID NO: 13)) |
| B15 | + (+ = 1.5 to 5 relative activity over Rd3BB (SEQ ID NO: 13)) |
| B16 | ++ (++ = >5 to 10 relative activity over Rd3BB (SEQ ID NO: 13)) |
